Like-named read-outs stand apart in the source and are kept apart here.
How the values were obtained:
CytR DBD [1] = target: T1, CytR DBD (Escherichia coli, UniProt P0ACN7 1-67); test: fluorescence anisotropy
T1 sequence: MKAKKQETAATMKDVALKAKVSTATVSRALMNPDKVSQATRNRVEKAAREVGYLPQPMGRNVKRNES

CytR DBD [2] = target: T1, CytR DBD; test: NMR
CytR DBD [3] = target: T1, CytR DBD; test: fluorescence anisotropy; remark: listed apart in the source
CytR DBD [4] = target: T1, CytR DBD; test: fluorescence anisotropy; remark: listed apart in the source

B1: nonspecific 14 bp (dsDNA)
DNA 1: AGCATGCTGGGGAC
DNA 2: GTCCCCAGCATGCT
Kd (CytR DBD [1]): 5.7 µM

B2: udp full-site operator (CytO) (dsDNA)
DNA 1: GTAAATTTATGCAACGCATTTGCGTCATGGTG
DNA 2: CACCATGACGCAAATGCGTTGCATAAATTTAC
binding result (CytR DBD [2]): binds

B3: udp left half-site (dsDNA)
DNA 1: ATTTATGCAACGCA
DNA 2: TGCGTTGCATAAAT
Kd (CytR DBD [3]): 9.6 ± 1.8 µM

B4: nonspecific 30 bp (dsDNA)
DNA 1: GTACAGAACATGTCTAAGCATGCTGGGGAC
DNA 2: GTCCCCAGCATGCTTAGACATGTTCTGTAC
Kd (CytR DBD [4]): 1.81 µM

Reference: paper doi:10.1101/2021.02.28.433298
